Measured values as given in the supplement of paper PMC10567573.

B1: EPB41L3 (parent)
chain: SMQCKVILLDGSEYTCDVEKRSRG

Variants of: B1
Assay: protein stability index of a GFP-peptide fusion (GPS, HEK-293T) (PSI 1-6); higher = more stable
Settings: c terminus: a fixed tail appended
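Note: lentivirally expressed fusions sorted by FACS into six bins by GFP to DsRed ratio, PSI derived from sequencing read proportions per bin multiplied by bin number.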

First: SMQCKVILLDGSEYTMDVEKRSRG [C16M]
Second: SMQCKVILLDGSEYTSDVEKRSRG [C16S]
The protein stability index of the first is lower: 2.41 for the first, 2.65 for the second.

First: SMQCKVILLDGSEYTNDVEKRSRG [C16N]
Second: SMQCKVILLDGSEYTVDVEKRSRG [C16V]
The protein stability index of the first is lower: 2.84 for the first, 3.7 for the second.

Going from SMQCKVILLDGSEYTPDVEKRSRG [C16P] to SMQCKVILLDGSEYTWDVEKRSRG [C16W], the protein stability index falls from 2.66 to 2.01.

First: SMQCKVILLDGSEYTLDVEKRSRG [C16L]
Second: SMQCKVILLDGSEYTTDVEKRSRG [C16T]
The protein stability index of the first is lower: 2.23 for the first, 2.55 for the second.

Going from SMQCKVILLDGSEYTCDVNKRSRG [E19N] to SMQCKVILLDGSEYTCDVCKRSRG [E19C], the protein stability index falls from 2.29 to 2.13.

First: SMQCKVILLDGSEYTCDVLKRSRG [E19L]
Second: SMQCKVILLDGSEYTCDVMKRSRG [E19M]
The protein stability index of the first is lower: 1.99 for the first, 2.14 for the second.

First: SMQCKVILLDGSEYTCDVKKRSRG [E19K]
Second: SMQCKVILLDGSEYTCDVTKRSRG [E19T]
The protein stability index of the first is higher: 2.34 for the first, 1.54 for the second.

Going from SMQCKVILLDGSEYTCDVYKRSRG [E19Y] to SMQCKVILLDGSEYTCDVGKRSRG [E19G], the protein stability index rises from 2.14 to 2.51.

Compared with SMQCKVILLDGSEYTCDVRKRSRG [E19R], SMQCKVILLDGSEYTCDVHKRSRG [E19H] is lower in protein stability index: 2.15 for the first, 1.73 for the second.

Compared with SMQCKVILLDGSEYTCDVSKRSRG [E19S], SMQCKVILLDGSEYTCDVAKRSRG [E19A] is lower in protein stability index: 2.6 for the first, 2.17 for the second.

Compared with SMQCKVILLDGSEYTCDVFKRSRG [E19F], SMQCKVILLDGSEYTCDVDKRSRG [E19D] is higher in protein stability index: 1.19 for the first, 2.19 for the second.

Going from SMQCKVILLDGSEYTCDVVKRSRG [E19V] to SMQCKVILLDGSEYTCDVIKRSRG [E19I], the protein stability index falls from 2.35 to 1.93.

Going from SMQCKVILLDGSEYTCDVQKRSRG [E19Q] to SMQCKVILLDGSEYTCDVWKRSRG [E19W], the protein stability index falls from 2.5 to 2.11.

Going from SMQCKVILLDGSEYTCDVPKRSRG [E19P] to SMQCKVILLDGSEYTCDVEERSRG [K20E], the protein stability index rises from 2.11 to 3.26.

Going from SMQCKVILLDGSEYTCDVEVRSRG [K20V] to SMQCKVILLDGSEYTCDVELRSRG [K20L], the protein stability index falls from 2.11 to 1.67.

Compared with SMQCKVILLDGSEYTCDVEMRSRG [K20M], SMQCKVILLDGSEYTCDVEFRSRG [K20F] is lower in protein stability index: 2.04 for the first, 1.43 for the second.

Compared with SMQCKVILLDGSEYTCDVETRSRG [K20T], SMQCKVILLDGSEYTCDVEPRSRG [K20P] is lower in protein stability index: 3.66 for the first, 2.49 for the second.

Going from SMQCKVILLDGSEYTCDVECRSRG [K20C] to SMQCKVILLDGSEYTCDVENRSRG [K20N], the protein stability index rises from 2.15 to 3.04.

Going from SMQCKVILLDGSEYTCDVEHRSRG [K20H] to SMQCKVILLDGSEYTCDVEWRSRG [K20W], the protein stability index falls from 2.87 to 1.02.

Compared with SMQCKVILLDGSEYTCDVESRSRG [K20S], SMQCKVILLDGSEYTCDVEIRSRG [K20I] is lower in protein stability index: 2.52 for the first, 1.21 for the second.

First: SMQCKVILLDGSEYTCDVEARSRG [K20A]
Second: SMQCKVILLDGSEYTCDVEDRSRG [K20D]
The protein stability index of the first is lower: 2.06 for the first, 3.36 for the second.

First: SMQCKVILLDGSEYTCDVEQRSRG [K20Q]
Second: SMQCKVILLDGSEYTCDVEKRARG [S22A]
The protein stability index of the first is higher: 2.6 for the first, 2.29 for the second.

First: SMQCKVILLDGSEYTCDVEKRCRG [S22C]
Second: SMQCKVILLDGSEYTCDVEKRDRG [S22D]
The protein stability index of the first is lower: 2.09 for the first, 2.52 for the second.

Compared with SMQCKVILLDGSEYTCSVEKRSRG [D17S], SMQCKVILLDGSEYTCIVEKRSRG [D17I] is lower in protein stability index: 2.21 for the first, 1.89 for the second.

Going from SMQCKVILLDGSEYTCYVEKRSRG [D17Y] to SMQCKVILLDGSEYTCTVEKRSRG [D17T], the protein stability index rises from 1.61 to 2.59.

First: SMQCKVILLDGSEYTCMVEKRSRG [D17M]
Second: SMQCKVILLDGSEYTCHVEKRSRG [D17H]
The protein stability index of the first is lower: 1.1 for the first, 2.51 for the second.

Compared with SMQCKVILLDGSEYTCEVEKRSRG [D17E], SMQCKVILLDGSEYTCGVEKRSRG [D17G] is lower in protein stability index: 2.84 for the first, 2.34 for the second.

First: SMQCKVILLDGSEYTCRVEKRSRG [D17R]
Second: SMQCKVILLDGSEYTCLVEKRSRG [D17L]
The protein stability index of the first is lower: 3.07 for the first, 3.38 for the second.

First: SMQCKVILLDGSEYTCNVEKRSRG [D17N]
Second: SMQCKVILLDGSEYTCPVEKRSRG [D17P]
The protein stability index of the first is lower: 2.36 for the first, 3.08 for the second.

Compared with SMQCKVILLDGSEYTCWVEKRSRG [D17W], SMQCKVILLDGSEYTCCVEKRSRG [D17C] is higher in protein stability index: 2.06 for the first, 2.45 for the second.

Compared with SMQCKVILLDGSEYTCDTEKRSRG [V18T], SMQCKVILLDGSEYTCDDEKRSRG [V18D] is lower in protein stability index: 3.38 for the first, 3.36 for the second.

First: SMQCKVILLDGSEYTCDFEKRSRG [V18F]
Second: SMQCKVILLDGSEYTCDQEKRSRG [V18Q]
The protein stability index of the first is lower: 2.1 for the first, 3.83 for the second.

Going from SMQCKVILLDGSEYTCDMEKRSRG [V18M] to SMQCKVILLDGSEYTCDAEKRSRG [V18A], the protein stability index rises from 2.62 to 3.5.

Compared with SMQCKVILLDGSEYTCDHEKRSRG [V18H], SMQCKVILLDGSEYTCDNEKRSRG [V18N] is higher in protein stability index: 2.72 for the first, 3.24 for the second.

Going from SMQCKVILLDGSEYTCDCEKRSRG [V18C] to SMQCKVILLDGSEYTCDIEKRSRG [V18I], the protein stability index rises from 2.29 to 2.82.

First: SMQCKVILLDGSEYTCDYEKRSRG [V18Y]
Second: SMQCKVILLDGSEYTCDPEKRSRG [V18P]
The protein stability index of the first is lower: 2.29 for the first, 3.57 for the second.

Going from SMQCKVILLDGSEYTCDGEKRSRG [V18G] to SMQCKVILLDGSEYTCDEEKRSRG [V18E], the protein stability index rises from 2.96 to 3.18.

Compared with SMQCKVILLDGSEYTCDLEKRSRG [V18L], SMQCKVILLDGSEYTCDKEKRSRG [V18K] is higher in protein stability index: 1.79 for the first, 4.16 for the second.

Compared with SMQCKVILLDGSEYTCDSEKRSRG [V18S], SMQCKVILLDGSEYTCDREKRSRG [V18R] is lower in protein stability index: 3.69 for the first, 2.92 for the second.

Compared with SMQCKVILLDGSEYTCDVEKVSRG [R21V], SMQCKVILLDGSEYTCDVEKMSRG [R21M] is lower in protein stability index: 2.19 for the first, 1.88 for the second.

Compared with SMQCKVILLDGSEYTCDVEKYSRG [R21Y], SMQCKVILLDGSEYTCDVEKGSRG [R21G] is higher in protein stability index: 2.09 for the first, 2.73 for the second.

First: SMQCKVILLDGSEYTCDVEKQSRG [R21Q]
Second: SMQCKVILLDGSEYTCDVEKKSRG [R21K]
The protein stability index of the first is lower: 2.55 for the first, 3.56 for the second.

Going from SMQCKVILLDGSEYTCDVEKISRG [R21I] to SMQCKVILLDGSEYTCDVEKDSRG [R21D], the protein stability index rises from 1.88 to 3.49.

Compared with SMQCKVILLDGSEYTCDVEKWSRG [R21W], SMQCKVILLDGSEYTCDVEKHSRG [R21H] is higher in protein stability index: 1.57 for the first, 2.72 for the second.

Compared with SMQCKVILLDGSEYTCDVEKESRG [R21E], SMQCKVILLDGSEYTCDVEKTSRG [R21T] is lower in protein stability index: 3.09 for the first, 2.84 for the second.

First: SMQCKVILLDGSEYTCDVEKLSRG [R21L]
Second: SMQCKVILLDGSEYTCDVEKCSRG [R21C]
The protein stability index of the first is lower: 2.31 for the first, 2.86 for the second.

First: SMQCKVILLDGSEYTCDVEKPSRG [R21P]
Second: SMQCKVILLDGSEYTCDVEKNSRG [R21N]
The protein stability index of the first is higher: 3.06 for the first, 1.92 for the second.
